# Measured values as given in patent EP4644419A1 (Hangzhou Zhongmeihuadong Pharmaceutical Co., Ltd., dated 2025).
# T1: human CD112R antigen protein huCD112R-His (Acro Biosysterm, PVG-H52H4) (human, UniProt Q6DKI7 41-171)
# T1 construct: purchased; also called human antigen protein; not shown: His tag
# T1 sequence (looked up): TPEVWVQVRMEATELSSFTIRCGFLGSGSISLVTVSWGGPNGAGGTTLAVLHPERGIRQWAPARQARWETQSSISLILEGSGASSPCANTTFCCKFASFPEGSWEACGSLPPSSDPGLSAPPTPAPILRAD
# T2: human CD112R on antigen-specific CD8+ T cells (human, UniProt Q6DKI7 1-326)
# T2 sequence (looked up): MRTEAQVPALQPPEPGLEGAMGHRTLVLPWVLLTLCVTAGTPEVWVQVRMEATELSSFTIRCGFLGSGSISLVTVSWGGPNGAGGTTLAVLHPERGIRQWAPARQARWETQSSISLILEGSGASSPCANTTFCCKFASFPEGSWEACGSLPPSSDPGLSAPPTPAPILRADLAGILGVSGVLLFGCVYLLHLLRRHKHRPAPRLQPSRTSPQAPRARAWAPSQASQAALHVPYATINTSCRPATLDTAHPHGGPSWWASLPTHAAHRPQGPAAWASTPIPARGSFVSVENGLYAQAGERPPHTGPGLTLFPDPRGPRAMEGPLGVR
# T3: human CD112R on GS-J2C/CD112R effector cells (human, UniProt Q6DKI7 1-326)
# T3 sequence (looked up): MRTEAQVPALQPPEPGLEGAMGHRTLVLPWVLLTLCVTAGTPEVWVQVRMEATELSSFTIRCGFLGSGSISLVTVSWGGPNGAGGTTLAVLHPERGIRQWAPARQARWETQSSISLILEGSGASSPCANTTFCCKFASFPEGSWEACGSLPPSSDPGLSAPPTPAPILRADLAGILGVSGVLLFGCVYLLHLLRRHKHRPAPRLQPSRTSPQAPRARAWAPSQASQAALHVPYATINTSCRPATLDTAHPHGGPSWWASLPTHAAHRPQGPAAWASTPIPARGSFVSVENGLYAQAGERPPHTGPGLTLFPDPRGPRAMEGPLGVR
# T4: monkey antigen protein (monkey CD112R, Uniprot ID: A0A2K5WVV8) (monkey, UniProt A0A2K5WVV8 41-171)
# T4 sequence: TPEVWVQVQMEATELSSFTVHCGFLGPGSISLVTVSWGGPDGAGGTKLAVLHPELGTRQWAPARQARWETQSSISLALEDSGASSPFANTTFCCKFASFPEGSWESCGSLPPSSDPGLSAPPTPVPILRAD
# Legend:
# [1] = target: T1, human CD112R antigen protein …; experiment: ELISA, huCD112R-His coated on plate
# [2] = target: T1, human CD112R antigen protein …; experiment: SPR (Biacore X100), antibody captured on Protein A chip, huCD112R-His as analyte, 1:1 Langmuir
# [3] = target: T2, human CD112R on antigen-specific CD8+ T …; experiment: cell-based or functional assay
# [4] = target: T3, human CD112R on GS-J2C/CD112R effector …; experiment: cell-based or functional assay
# [5] = target: T4, monkey antigen protein (monkey CD112R, …); experiment: ELISA, monkey antigen protein (as Example 6.1)
Binder,EC50 [1] [pM],Kd [2] [pM],IFN-γ(pg/ml) at 0.5µg/ml antibody [3] [pg/mL],IFN-γ(pg/ml) at 5µg/ml antibody [3] [pg/mL],IFN-γ(pg/ml) at 50µg/ml antibody [3] [pg/mL],"EC50 (Blocking effects of the antibodies, reporter gene method) [4] [µg/mL]",EC50 [5] [pM]
"C8 (antibody, human IgG1, kappa, V domains shown) VH: EVQLVASGGGLVKPGGSLKLSCAASGFTFSDYYMFWVRQTPEKRLEWVATISDGGGYIYYPDSVKGRFTISRDNDRNSLYLQMSSLKSEDTAIYYCGREDFWGQGTSVTVSS VL: DIQMTQSPSSLSASLGERVSLTCRASQDIGRSLNWLQQEPDGSVRRLIYATSRLDSGVPKRFSGSRSGSDYSLTISSLESEDFVDYYCLQYASFPYTFGGGTKLEIKR",46,397,722,783,819,0.026,47
"C18 (antibody, human IgG1, kappa, V domains shown) VH: EVQLVESGGGLVKPGGSLKLSCAASGFTFSDYYMYWVRQTPEKRLEWVATISDGGGFIYYPDSVKGRFTISRDNDRNSLYLLMSSLKSEDTAMYFCGREDLWGQGTSVTVSS VL: DIQMTQSPSSLSASLGERVSLTCRASQDIGRSLNWLQQGPDGTVKRLIYATSRLDSGVPTRFSGSRSGSDYSLTISSLESEDFVDYYCLQYASFPYTFGGGTKLEIKR",69,206,748,802,–,0.034,69
"C19 (antibody, human IgG1, kappa, V domains shown) VH: EVQLVESGGGLVKPGGSLKLSCAASGFTFSDYYMYWVRQTPEKRLEWVATISDAGGYTYYPDSVKGRFTISRDNARNSLYLQMSSLKSEDTAMYFCGREDLWGQGTSVTVSS VL: DIQMTQSPSSLSASLGERVSLTCRASQDIGYSLNWLQQEPDGSVRRLIYATSRLDSGVPKRFSGSRSGSDYSLTISSLESEDFVDYYCLQYASFPYTFGGGTKLEIKR",43,567,571,744,829,0.033,34
"C20 (antibody, human IgG1, kappa, V domains shown) VH: EVQLVESGGGLVKPGGSLKLSCAASGFTFSDSYMCWVRQTPEKRLEWVATISDAGGYTYYPDSVKGRFTISRDNDRNNLYLQMSGLKSEDTAVYYCGREDLWGQGTSVTVSS VL: DIQMTQSPSSLSASLGERVSLTCRASQDIGRSLNWLQQEPDGTIKRLIYATSRLDSGVPKRFSGSRSGSDYSLTISSLESEDFVDYYCLQYASSPYTFGGGTKLEIKR",2270,114,708,835,–,0.025,8360
"C14 (antibody, human IgG1, kappa, V domains shown) VH: QVQLQQPGAELVRPGTSVKLSCKASGNTFTSYWMHWVKQRPGQGHEWIGVIDASDSNTKYNQKFKGKATLTVDTSSSTAYMQLSSLTSEDSAVYYCARYYSGSSYGLDYWGQGTTLTVSS VL: DIQMTQTASSLSASLGDRVTISCRASQDISNYLNWYQQKPDGTVKLLIYYTSRLHSGVPSRFSGSGSGTDFSLTITHLEQEDIASYFCQQGNMFPPTFGGGTKLEIKR",52,68.7,619,674,759,0.052,67
"C24 (antibody, human IgG1, kappa, V domains shown) VH: QVQLKQSGPGLVQPSQNLSITCTVSGFSLTGYGINWVRQSPGKGLEWLGVIWSGGNTEYNAAFRSRLSISKDTSKSQVFLKMNSLQADDTAIYSCARDSTGLYAMDYWGPGTSVTVSS VL: DLQMTQTTSSLSASLGDRVTISCRTSQDISNFLNWYQQKPDGPLKLLIYYTSRLHSGVPSRFSGSGSGTDYSLTISNLEQEDIATYFCQQGYMLPPTFGGGTKLEIKR",48,46.7,611,656,733,0.05,169
"C3 (antibody, human IgG1, kappa, V domains shown) VH: QVQLQQSGPELVKPGASVKISCRSSGYTFTDYYINWVKQRPGQGLEWIGWIFPGSDYTYYNEKFKGKATLTVDKSSTTAYMLLSSLTSEDSAVYFCARDGGLRGPFDYWGQGTTLTVSS VL: DIQMTQSPSSLSASLGGKVTITCKASQDINKYIAWYQQKPGKGPRLLIHYTSTLQPGIPSRFSGSGSGRNSSFSISNLEPEDIATYYCLQYDNLHTFGGGTKLEIKR",46,181,535,633,755,0.04,118
"C41 (antibody, human IgG1, kappa, V domains shown) VH: EVQLQQSGPELVKPGASVKISCKASGNTFTDYYINWVKQSHGKSLEWIGDIEPNNGGTNYNQKFKGKATLTVDKSSSTAYMELRSLTSEDSAIYYCATLYFDYWGQGTTLTVSS VL: DIVMTQSPSSLSVSAGEKVTMSCKSSQSLLNSGNQKNYLAWYQQKPGQPPKLLIYGASTRESGVPDRFTGSGSGTDFTLTISSVQAEDLAVYYCQNDHSYPFTFGSGTKLEIKR",33,22,573,751,659,0.024,52
"C7 (antibody, human IgG1, kappa, V domains shown) VH: EVQLQQSGPELVKPGASVKISCKASGYTLTDYYMNWVKQSHGKSLEWIGDINPNNGGTNFNQKFKGKATLTIDKSSSTTYMELRSLTSEDSAVYYCASLFFDYWGQGTTLTVSS VL: DIVMTQSPSSLSVSAGEKVTMSCKSSQSLLNSGNQKNYLAWYQQKPGQPPKLLIYGASTRESGVPDRFTGSGSGTDFTLTISSVQAEDLALYYCQNAHSSPYTFGGGTKLEIKR",34,57.6,818,837,–,0.031,80
